The text below walks through data of patent publication US6521594 (LA JOLLA CANCER RESEARCH FOUNDATION, dated 2003).

Starred links: 1 amine or outer side, 2 acyl side, 3 side chain; linkers in the order of their positions; H or OH if unused. Positions of bridges follow the written chain, without caps; N, C: chain ends. Non-standard residues stand in square brackets, D forms with d. Primed or numbered codes have the meaning given here. No end group written: not given here. *: point of attachment. Tyr(OMe)″ = O-methyl-tyrosine (Y-OMe, TyrOMe, O-Me-Tyr), COc1ccc(C[C@H](N[*:1])C(=O)[*:2])cc1; Tyr(Me)(4) = O-methyl-tyrosine (O-Me-Tyr, TyrMe), COc1ccc(C[C@H](N[*:1])C(=O)[*:2])cc1; Tyr(Me) = O-methyl-tyrosine (Y-OMe, O-Me-Tyr), COc1ccc(C[C@H](N[*:1])C(=O)[*:2])cc1; Tyr(Me)(3) = O-methyl-tyrosine (O-Me-Tyr), COc1ccc(C[C@H](N[*:1])C(=O)[*:2])cc1; Tyr(nHex) = O-n-hexyl-tyrosine, CCCCCCOc1ccc(C[C@H](N[*:1])C(=O)[*:2])cc1; Tyr(OMe)(3) = O-methyl-tyrosine, COc1ccc(C[C@H](N[*:1])C(=O)[*:2])cc1; Cys(β,β-pentamethylene) = O=C([C@@H](N[*:1])C1(S[*:3])CCCCC1)[*:2]; Phe(4-NO2) = N[C@@H](Cc1ccc([N+](=O)[O-])cc1)C(=O)O; Tyr(3,5-I2) = N[C@@H](Cc1cc(I)c(O)c(I)c1)C(=O)O; Cyclohexylacetyl(1-SH) = O=C(CC1(S)CCCCC1)*; Phe(4-I) = N[C@@H](Cc1ccc(I)cc1)C(=O)O; 1Nal = N[C@@H](Cc1cccc2ccccc12)C(=O)O; Cha = N[C@@H](CC1CCCCC1)C(=O)O; dPen = CC(C)(S)[C@@H](N)C(=O)O; Pen = CC(C)(S)[C@H](N)C(=O)O; code O = not defined here; Orn = NCCC[C@H](N)C(=O)O

In assay [1] the target is T1, Platelet glycoprotein IIb/IIIa (human, UniProt P08514 32-1039; P05106 27-788). Briefly: cell-based or functional assay.
The target of assay [2] is T1, Platelet glycoprotein IIb/IIIa. Briefly: competition, ELISA or liposome assay. (In general: In an ELISA, binding on a coated surface is turned into a signal by an enzyme label.)
The target in the next assay is T2, Vitronectin receptor (human, UniProt P06756 31-1048; P05106 27-788).
T2 construct: mature; also called Vn-R; VnR
T2 sequence (P06756 31-1048, chain 1 of 2): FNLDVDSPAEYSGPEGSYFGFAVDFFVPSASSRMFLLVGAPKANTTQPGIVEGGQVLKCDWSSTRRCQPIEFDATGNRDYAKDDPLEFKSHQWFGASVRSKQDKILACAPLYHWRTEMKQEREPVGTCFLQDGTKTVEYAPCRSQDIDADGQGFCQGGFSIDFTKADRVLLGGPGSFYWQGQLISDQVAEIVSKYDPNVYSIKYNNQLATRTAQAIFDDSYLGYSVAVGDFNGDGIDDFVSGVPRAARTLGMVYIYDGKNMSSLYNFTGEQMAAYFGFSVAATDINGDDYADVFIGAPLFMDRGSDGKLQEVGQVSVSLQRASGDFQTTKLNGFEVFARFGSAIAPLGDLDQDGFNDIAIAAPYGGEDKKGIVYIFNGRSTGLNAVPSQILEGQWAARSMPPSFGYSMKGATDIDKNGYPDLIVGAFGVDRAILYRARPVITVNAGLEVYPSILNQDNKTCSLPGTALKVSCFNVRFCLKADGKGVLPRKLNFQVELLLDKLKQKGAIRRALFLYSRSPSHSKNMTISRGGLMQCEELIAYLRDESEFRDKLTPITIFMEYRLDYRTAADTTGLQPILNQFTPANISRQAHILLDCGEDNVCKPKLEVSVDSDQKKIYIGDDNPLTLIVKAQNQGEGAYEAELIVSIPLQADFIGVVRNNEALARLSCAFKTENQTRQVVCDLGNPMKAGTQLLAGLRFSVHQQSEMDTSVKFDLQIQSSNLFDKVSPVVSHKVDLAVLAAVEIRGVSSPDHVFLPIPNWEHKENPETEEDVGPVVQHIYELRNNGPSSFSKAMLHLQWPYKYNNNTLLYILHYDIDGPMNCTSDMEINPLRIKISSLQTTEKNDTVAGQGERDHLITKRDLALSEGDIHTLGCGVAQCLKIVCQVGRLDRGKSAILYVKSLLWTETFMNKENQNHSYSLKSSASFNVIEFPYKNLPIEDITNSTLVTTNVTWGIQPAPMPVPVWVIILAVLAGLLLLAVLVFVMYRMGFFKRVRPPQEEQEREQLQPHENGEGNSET
T2 sequence (P05106 27-788, chain 2 of 2): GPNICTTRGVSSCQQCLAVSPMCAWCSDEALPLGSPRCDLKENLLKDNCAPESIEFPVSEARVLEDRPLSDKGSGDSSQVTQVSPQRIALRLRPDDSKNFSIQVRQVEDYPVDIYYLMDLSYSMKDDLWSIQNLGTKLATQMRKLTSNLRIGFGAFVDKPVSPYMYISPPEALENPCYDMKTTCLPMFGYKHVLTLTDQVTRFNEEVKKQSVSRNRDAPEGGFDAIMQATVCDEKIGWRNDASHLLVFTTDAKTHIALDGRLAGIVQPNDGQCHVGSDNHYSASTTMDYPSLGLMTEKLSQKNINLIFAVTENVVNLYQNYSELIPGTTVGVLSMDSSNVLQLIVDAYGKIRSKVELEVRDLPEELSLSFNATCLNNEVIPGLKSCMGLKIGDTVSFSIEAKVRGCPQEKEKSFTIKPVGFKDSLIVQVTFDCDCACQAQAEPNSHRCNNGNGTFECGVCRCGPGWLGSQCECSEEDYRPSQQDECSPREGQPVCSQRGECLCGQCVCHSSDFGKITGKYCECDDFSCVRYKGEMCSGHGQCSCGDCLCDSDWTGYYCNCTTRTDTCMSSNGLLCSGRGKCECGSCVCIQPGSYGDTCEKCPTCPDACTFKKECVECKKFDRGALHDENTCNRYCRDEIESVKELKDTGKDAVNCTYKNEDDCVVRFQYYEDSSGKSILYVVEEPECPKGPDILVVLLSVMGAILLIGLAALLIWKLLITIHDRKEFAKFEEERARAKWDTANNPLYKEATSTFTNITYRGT
Briefly: competition, ELISA or liposome assay, vitronectin coated.

Another assay addresses T3, Fibronectin receptor (human, UniProt P08648 42-1049; P05556 21-798).
T3 construct: mature; Purified on a 110 kd fibronectin fragment column; also called Fn-R; FnR
As to the kind of experiment: competitive ELISA, fibronectin coated.

T3 sequence (P08648 42-1049, chain 1 of 2): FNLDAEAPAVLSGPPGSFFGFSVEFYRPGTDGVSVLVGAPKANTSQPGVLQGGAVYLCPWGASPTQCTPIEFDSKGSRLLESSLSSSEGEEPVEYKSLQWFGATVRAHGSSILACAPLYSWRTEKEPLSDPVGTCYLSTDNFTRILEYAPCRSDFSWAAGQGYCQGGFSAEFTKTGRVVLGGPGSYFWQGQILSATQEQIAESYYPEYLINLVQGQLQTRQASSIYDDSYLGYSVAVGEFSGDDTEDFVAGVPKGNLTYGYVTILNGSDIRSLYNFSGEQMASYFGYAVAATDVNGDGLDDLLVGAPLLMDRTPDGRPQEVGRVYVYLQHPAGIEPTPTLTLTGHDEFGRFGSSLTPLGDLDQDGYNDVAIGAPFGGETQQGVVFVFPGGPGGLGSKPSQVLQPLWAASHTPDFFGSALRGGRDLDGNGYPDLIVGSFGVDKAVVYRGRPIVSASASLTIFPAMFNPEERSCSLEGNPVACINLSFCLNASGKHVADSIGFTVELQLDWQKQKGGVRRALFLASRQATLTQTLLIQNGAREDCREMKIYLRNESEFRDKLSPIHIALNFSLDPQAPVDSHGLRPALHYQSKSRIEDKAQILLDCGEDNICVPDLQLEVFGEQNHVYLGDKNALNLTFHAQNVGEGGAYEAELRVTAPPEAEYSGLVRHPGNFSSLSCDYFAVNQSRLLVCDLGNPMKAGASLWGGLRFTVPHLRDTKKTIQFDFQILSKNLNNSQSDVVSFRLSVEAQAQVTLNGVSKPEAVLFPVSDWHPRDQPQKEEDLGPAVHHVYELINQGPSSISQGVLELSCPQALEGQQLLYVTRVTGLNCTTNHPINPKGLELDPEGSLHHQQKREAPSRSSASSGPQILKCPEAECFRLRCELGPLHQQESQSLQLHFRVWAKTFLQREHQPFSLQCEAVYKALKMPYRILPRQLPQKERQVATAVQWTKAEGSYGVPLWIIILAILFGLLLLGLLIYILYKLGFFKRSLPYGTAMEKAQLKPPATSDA
T3 sequence (P05556 21-798, chain 2 of 2): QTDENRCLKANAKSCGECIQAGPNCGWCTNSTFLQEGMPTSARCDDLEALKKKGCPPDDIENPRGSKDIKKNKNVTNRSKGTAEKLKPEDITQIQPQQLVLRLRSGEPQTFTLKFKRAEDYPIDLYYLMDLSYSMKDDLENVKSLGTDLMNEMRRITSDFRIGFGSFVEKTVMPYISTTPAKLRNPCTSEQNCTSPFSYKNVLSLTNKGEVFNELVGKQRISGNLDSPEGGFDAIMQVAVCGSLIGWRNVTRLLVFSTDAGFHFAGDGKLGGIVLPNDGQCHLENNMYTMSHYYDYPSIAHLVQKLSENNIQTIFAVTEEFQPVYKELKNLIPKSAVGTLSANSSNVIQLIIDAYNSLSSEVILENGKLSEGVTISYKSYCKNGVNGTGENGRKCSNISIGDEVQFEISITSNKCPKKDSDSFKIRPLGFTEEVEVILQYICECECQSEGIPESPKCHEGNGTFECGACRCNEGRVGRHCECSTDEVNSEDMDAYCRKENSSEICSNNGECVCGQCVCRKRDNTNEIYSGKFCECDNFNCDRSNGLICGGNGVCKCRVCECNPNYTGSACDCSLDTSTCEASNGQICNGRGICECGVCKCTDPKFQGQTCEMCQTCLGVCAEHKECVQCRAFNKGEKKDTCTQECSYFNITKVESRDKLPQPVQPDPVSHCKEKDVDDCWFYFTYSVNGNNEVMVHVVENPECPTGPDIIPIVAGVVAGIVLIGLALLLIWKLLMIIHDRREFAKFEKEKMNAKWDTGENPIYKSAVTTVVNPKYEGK

For the molecule R[Orn]GHRGDLRDR [R(orn)GHRGDLRDR], the “IC50, ADP-Stimulated Aggregation” value in assay [1] was below 200 µM. Broadly, the IC50 is the concentration that gives 50% inhibition. R[Cys(β,β-pentamethylene)]GHRGD[Tyr(Me)][code O]CR (disulfide 2-10; reading uncertain; also: printed as R(Pmc)GHRGD(O-Me-Tyr)OCR) [R(Pmc)GHRGD(O-Me-Tyr)OCR]: the half-maximal inhibitory concentration (IC50) in assay [2] worked out at 0.007 µM.

Turning to [t‑butylAmino‑Pmp]GHRGDLRCA (disulfide 1-9; also: place of tert-butyl and chirality not given here) [(t-butylAmino-Pmp) GHRGDLRCA], the “IC50, ADP-Stimulated Aggregation” value in assay [1] was found to be 130 µM. With G[Pen]GRGDTPCA (disulfide 2-9) [G(Pen)GRGDTPCA], the “IC50, ADP-Stimulated Aggregation” value in assay [1] turned out to be 22.3 µM. On the same count and under the same terms, then G[Pen]LRGDTPCA (disulfide 2-9) [G(Pen)LRGDTPCA], with 86 µM. In the case of R[Pen]GRGDWPCR (disulfide 2-9) [R(Pen)GRGDWPCR], the “IC50, Thrombin Stimulated Aggregation” value in assay [1] stood at 0.53 µM. Regarding R[Pen]GRGDTPCR (disulfide 2-9) [R(Pen)GRGDTPCR], the “IC50, Thrombin Stimulated Aggregation” value in assay [1] was 2 µM. The molecule also registered a concentration for half-maximal inhibition (IC50) with Vitronectin receptor of 0.01 µM. As for R[Cys(β,β-pentamethylene)]GRGDTPCA (disulfide 2-9) [R(AminoPmp)GRGDTPCA], in the assay with Fibronectin receptor, the IC50 was found to be 0.03 µM. In other words, the double-digit nanomolar range.

In turn, R[Cys(β,β-pentamethylene)]GRGDWPCR (disulfide 2-9) [R(am-Pmp)GRGDWPCR] came in with a half-inhibitory concentration (IC50) in the assay with Fibronectin receptor of 0.05 µM. With G[Pen]LRGDSRCA (disulfide 2-9) [G(Pen)LRGDSRCA], in assay [1], the “IC50, ADP-Stimulated Aggregation” value is 41 µM and the “IC50, Thrombin Stimulated Aggregation” value is 49 µM. As for G[Pen]FRGDSFCA (disulfide 2-9) [G(Pen)FRGDSFCA], in assay [1], the “IC50, ADP-Stimulated Aggregation” value is below 200 µM. The molecule also displayed a half-inhibitory concentration (IC50) with Vitronectin receptor of 0.05 µM. Taken in the same sequence, the figures for G[Pen]GRGDSFCA (disulfide 2-9) [G(Pen)GRGDSFCA] were 115 µM and 0.02 µM.

B1: K(Pen)GRGDTPCA (peptide)
peptide: K[Pen]GRGDTPCA
modifications: disulfide 2-9
notes: 21 numbers stand for 20 rows, so none is assigned
B1: the IC50 in the assay with Fibronectin receptor was 0.03 µM. Regarding R[Pen]GRGDTPCA (disulfide 2-9) [R(Pen)GRGDTPCA], the “IC50, ADP-Stimulated Aggregation” value in assay [1] turned out to be 7 µM. For the same molecule, the IC50 with Fibronectin receptor amounted to 0.08 µM; in the assay with Vitronectin receptor it was 0.03 µM. For the molecule G[Pen]LRGDSPCA (disulfide 2-9) [G(Pen)LRGDSPCA], in assay [1], the “IC50, ADP-Stimulated Aggregation” value is 415 µM and the “IC50, Thrombin Stimulated Aggregation” value was determined as 308 µM.

Regarding G[Pen]GRGDRPCA (disulfide 2-9) [G(Pen)GRGDRPCA], in assay [1], the “IC50, ADP-Stimulated Aggregation” value is 22.3 µM. As to R[Cys(β,β-pentamethylene)]GHRGD[Tyr(nHex)]RCR (disulfide 2-10) [R(Pmc)GHRGD(O-n-hexyl-Tyr)RCR], the IC50 with Fibronectin receptor amounted to 2 µM. As for R[Cys(β,β-pentamethylene)]RGD[Cha]CR (disulfide 2-7) [R(am-Pmp)RGD(Cha)CR], the “IC50, ADP-Stimulated Aggregation” value in assay [1] is below 200 µM. With R[Pen]GRGDSRCA (disulfide 2-9) [R(Pen)GRGDSRCA], in assay [1], the “IC50, ADP-Stimulated Aggregation” value worked out at 12 µM and the “IC50, Thrombin Stimulated Aggregation” value was found to be 12 µM. Take XGHRGDLRXA (not fully specified; t-but-am-Pmp at 1; Pen at 9) [(t-but-am-Pmp)GHRGDLR(Pen)A]: the “IC50, ADP-Stimulated Aggregation” value in assay [1] is 89 µM. Same read-out and setting: then R[Pen]GHRGDTRCR (disulfide 2-10) [R(Pen)GHRGDTRCR], with 8.8 µM.

In the assay with Vitronectin receptor, [Cyclohexylacetyl(1-SH)]GHRGDLRCA (disulfide 1-9) [(Pmp)GHRGDLRCA] came in with an IC50 of 10 µM. On the same count and under the same terms, under R[Cys(β,β-pentamethylene)]GHRGD[Tyr(Me)(4)]RCR (disulfide 2-10; also: am-Pmp2 from racemic mixture) [R(am-Pmp)GHRGD(TyrMe)RCR] stands 1 µM. The molecule R[dPen]NPRGD[Tyr(OMe)(3)]RCR (disulfide 2-10) [R(dPen)NPRGD(O-Me-Tyr)RCR] had an IC50 in the assay with Fibronectin receptor of 10 µM. Turning to R[Pen]GRGDLRCA (disulfide 2-9) [R(Pen)GRGDLRCA], in assay [1], the “IC50, ADP-Stimulated Aggregation” value turned out to be 16 µM and the “IC50, Thrombin Stimulated Aggregation” value came to 13 µM. In the assay with Fibronectin receptor, D[Cys(β,β-pentamethylene)]GHRGD[Tyr(OMe)″]RCR (disulfide 2-10) [D(Pmc)GHRGD(O-Me-Tyr)RCR] gave an IC50 of 10 µM.

Consider R[Cys(β,β-pentamethylene)]GHRGD[Tyr(Me)]KCR (disulfide 2-10) [R(Pmc)GHRGD(O-Me-Tyr)KCR], for which the IC50 with Fibronectin receptor and with Vitronectin receptor was 10 µM in each case. As for T[Cys(β,β-pentamethylene)]GHRGD[Tyr(OMe)(3)]RCR (disulfide 2-10; not fully specified; printed as T(Pmc)GHRGD(O-Me-Tyr)RCR) [T(Pmc)GHRGD(O-Me-Tyr)RCR], the half-maximal inhibitory concentration (IC50) with Fibronectin receptor and in the assay with Vitronectin receptor was 10 µM throughout. In the case of R[Cys(β,β-pentamethylene)]GHRGD[Phe(4-I)]KCR (disulfide 2-10) [R(Pmc)GHRGD(p-iodo-Phe)KCR], in the assay with Vitronectin receptor, the IC50 is 8 µM. Still for that read-out and setting: under R[Cys(β,β-pentamethylene)]GHRGD[Phe(4-NO2)]KCR (disulfide 2-10) [R(Pmc)GHRGD(p-nitro-Phe)KCR] stands 10 µM.

For G[Cys(β,β-pentamethylene)]GHRGD[Tyr(Me)(3)]RCR (disulfide 2-10) [G(Pmc)GHRGD(O-Me-Tyr)RCR], the IC50 in the assay with Fibronectin receptor and with Vitronectin receptor was 10 µM in each case. On to R[Cys(β,β-pentamethylene)]GHRGDFRCR (disulfide 2-10 (inferred)) [R(Pmc)GHRGDFRCR], for which the “IC50, ADP-Stimulated Aggregation” value in assay [1] is 0.62 µM. In assay [2], R[Cys(β,β-pentamethylene)]GHRGDWRCR (disulfide 2-10; not fully specified; printed as R(am-Pmp)GHRGDWRCR-1) [R(am-Pmp)GHRGDWRCR-1] returned a half-inhibitory concentration (IC50) of 0.06 µM. Regarding R[Cys(β,β-pentamethylene)]GHRGDYRCR (disulfide 2-10) [R(Pmc)GHRGDYRCR], the “IC50, ADP-Stimulated Aggregation” value in assay [1] is 1 µM. With R[Cys(β,β-pentamethylene)]GHRGDVRCR (disulfide 2-10; not fully specified; printed as R(Pmc)GHRGDVRCR) [R(Pmc)GHRGDVRCR], the “IC50, ADP-Stimulated Aggregation” value in assay [1] was 0.69 µM. The molecule also displayed an IC50 with Vitronectin receptor of 2 µM. In the case of G[Pen]YRGDSPCA (disulfide 2-9) [G(Pen)YRGDSPCA], the “IC50, ADP-Stimulated Aggregation” value in assay [1] amounted to 47 µM. R[Cys(β,β-pentamethylene)]GHRGD[Tyr(3,5-I2)]RCR (disulfide 2-10) [R(Pmc)GHRGD(3,5-diiodo-Tyr)RCR]: in the assay with Vitronectin receptor, the IC50 was 0.9 µM.

Take FRGDSPDG: the “IC50, ADP-Stimulated Aggregation” value in assay [1] stood at 110 µM. The IC50 worked out at 2.4 µM with Fibronectin receptor and 0.04 µM with Vitronectin receptor.

Take YRGDSPDG: the IC50 with Vitronectin receptor amounted to 0.08 µM. Turning to LRGDSPDG, in assay [1], the “IC50, ADP-Stimulated Aggregation” value came to 150 µM. The molecule also returned an IC50 with Vitronectin receptor of 0.2 µM. As to G[Pen]GHRGDTRCA (disulfide 2-10) [G(Pen)GHRGDTRCA], in assay [1], the “IC50, ADP-Stimulated Aggregation” value was determined as 11.3 µM and the “IC50, Thrombin Stimulated Aggregation” value was 17 µM. Take L[Pen]GHRGDLRCA (disulfide 2-10) [L(Pen)GHRGDLRCA]: in assay [1], the “IC50, ADP-Stimulated Aggregation” value was determined as 10.5 µM.

In the assay with Fibronectin receptor, R[Pen]GHRGD[1Nal]RCR (disulfide 2-10) [R(Pen)GHRGD(1-Nal)RCR] showed an IC50 of 10 µM.

R[Cys(β,β-pentamethylene)]GHRGDLRCR (disulfide 2-10; not fully specified; printed as R(am-Pmp)GHRGDLRCR-1) [R(am-Pmp)GHRGDLRCR-1] registered an IC50 in assay [2] of 0.4 µM.
